{"source": "patent US20230265421", "test_system": "T1, dFrCas9 (Faecalibaculum rodentium)", "T1 sequence": "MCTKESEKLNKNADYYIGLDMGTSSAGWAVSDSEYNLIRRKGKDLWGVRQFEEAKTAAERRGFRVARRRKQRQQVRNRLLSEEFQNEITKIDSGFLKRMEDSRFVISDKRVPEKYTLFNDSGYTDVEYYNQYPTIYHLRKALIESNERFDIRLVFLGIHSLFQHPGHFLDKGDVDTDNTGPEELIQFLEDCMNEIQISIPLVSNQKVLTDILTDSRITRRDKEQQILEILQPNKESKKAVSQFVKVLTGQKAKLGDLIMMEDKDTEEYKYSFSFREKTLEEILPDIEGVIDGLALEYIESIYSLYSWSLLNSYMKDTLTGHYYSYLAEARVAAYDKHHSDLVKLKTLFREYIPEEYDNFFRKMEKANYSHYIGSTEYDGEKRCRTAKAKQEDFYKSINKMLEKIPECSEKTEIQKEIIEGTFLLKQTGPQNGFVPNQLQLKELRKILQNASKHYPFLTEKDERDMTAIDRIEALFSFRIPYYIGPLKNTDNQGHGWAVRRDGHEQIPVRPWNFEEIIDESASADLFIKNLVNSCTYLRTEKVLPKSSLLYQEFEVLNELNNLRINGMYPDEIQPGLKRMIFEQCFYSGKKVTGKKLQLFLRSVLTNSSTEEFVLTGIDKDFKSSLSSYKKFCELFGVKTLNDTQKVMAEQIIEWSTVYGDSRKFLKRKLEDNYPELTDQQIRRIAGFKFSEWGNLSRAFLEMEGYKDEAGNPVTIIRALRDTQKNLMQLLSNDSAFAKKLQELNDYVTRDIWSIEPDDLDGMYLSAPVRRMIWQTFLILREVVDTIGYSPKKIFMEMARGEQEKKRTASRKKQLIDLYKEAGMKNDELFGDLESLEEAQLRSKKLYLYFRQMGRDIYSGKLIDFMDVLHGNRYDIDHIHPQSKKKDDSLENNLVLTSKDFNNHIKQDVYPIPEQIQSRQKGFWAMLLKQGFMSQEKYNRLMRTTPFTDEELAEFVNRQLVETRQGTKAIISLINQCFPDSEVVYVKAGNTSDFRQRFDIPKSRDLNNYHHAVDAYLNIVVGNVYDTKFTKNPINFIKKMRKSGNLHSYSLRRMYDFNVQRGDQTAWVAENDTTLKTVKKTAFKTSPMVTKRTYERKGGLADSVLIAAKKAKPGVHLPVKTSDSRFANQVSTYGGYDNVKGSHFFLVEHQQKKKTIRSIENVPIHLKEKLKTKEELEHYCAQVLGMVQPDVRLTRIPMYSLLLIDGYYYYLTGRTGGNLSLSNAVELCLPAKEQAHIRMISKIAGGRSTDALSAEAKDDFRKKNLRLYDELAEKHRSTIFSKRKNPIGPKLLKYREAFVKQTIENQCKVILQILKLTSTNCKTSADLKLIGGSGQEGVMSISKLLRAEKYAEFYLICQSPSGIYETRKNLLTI", "assay": "cell_activity", "conditions": "CRISPRi by binding TATA-box; PAM NNTA", "data": [{"substance": "ABCA1 TATA-box sgRNA ; ABCA1 TATA-box", "values": [{"measurement": "activity (% decrease of expression)", "result": 61.7}]}]}
